The record followed here is the Immune Epitope Database (IEDB).

The target in one test is HLA-A*68:02. Nature of the test: IEDB peptide-MHC binding, purified MHC/direct/fluorescence; filed as Kd, often an IC50 or EC50 that approximates it; ≥ and ≤ were set here for values at or beyond the usual limits of such assays.
In a further test the target is HLA-B*57:01. The description is as above.
The target of a further test is HLA-B*08:02. The description is as above. As to conditions: source organism: Orthomarburgvirus marburgense.
The next test has as its target HLA-A*11:01. Described as above.
For the next test, the target named is HLA-B*48:01. The test is described as above. As to conditions: source organism: Marburg virus - Musoke, Kenya, 1980.
Another test addresses HLA-B*07:02. The test is described as above.
The next test deals with HLA-B*58:01. The test is described as above.
The target in another test is HLA-B*15:17. The description is as above. To be noted: source organism: Marburg virus - Musoke, Kenya, 1980.
A further test has as its target HLA-B*15:01. Described as above.
Another test deals with HLA-A*03:01. The description is as above. To be noted: source organism: Marburg virus - Musoke, Kenya, 1980.
In the next test the target is HLA-B*40:01. The description is as above. As to conditions: source organism: Marburg virus - Musoke, Kenya, 1980.
For another test, the target named is HLA-B*46:01. The test is described as above. As to conditions: source organism: Marburg virus - Musoke, Kenya, 1980.
For test [1], the target named is HLA-A*01:01. The test is described as above. As to conditions: source organism: Marburg virus - Musoke, Kenya, 1980.
The target in a further test is HLA-B*27:05. Described as above. To be noted: source organism: Marburg virus - Musoke, Kenya, 1980.
The next test deals with HLA-A*31:01. The description is as above.
In the next test the target is HLA-A*02:01. The description is as above.
Another test has as its target HLA-A*26:03. The description is as above.
A further test deals with HLA-A*69:01. Described as above.
The target in the next test is HLA-B*18:01. The description is as above.
The target in a further test is HLA-B*08:01. Described as above. As to conditions: source organism: Francisella tularensis subsp. holarctica LVS.
A further test addresses HLA-B*39:01. The description is as above. To be noted: source organism: Francisella tularensis subsp. tularensis FSC033.
In a further test the target is HLA-B*15:09. The description is as above. To be noted: source organism: Francisella tularensis subsp. tularensis FSC033.
The target of the next test is HLA-A*26:01. Nature of the test: IEDB peptide-MHC binding, purified MHC/competitive/fluorescence; filed as Kd, often an IC50 or EC50 that approximates it; ≥ and ≤ were set here for values at or beyond the usual limits of such assays. To be noted: source organism: Francisella tularensis subsp. tularensis FSC198.
In the next test the target is HLA-A*26:02. The test is described as above. To be noted: source organism: Francisella tularensis subsp. tularensis FSC198.
Test [2] has as its target HLA-A*01:01. Described as above. To be noted: source organism: Francisella tularensis subsp. tularensis FSC198.
Where [3] appears, read: source organism: Marburg virus - Musoke, Kenya, 1980.
Setting [4] is: source organism: Francisella tularensis subsp. holarctica LVS.
Where [5] appears, read: source organism: Francisella tularensis subsp. tularensis FSC033.

Regarding KLDFIRNTK, the Kd is no less than 20 µM with HLA-A*68:02 (setting [3]); no less than 20 µM with HLA-B*57:01 (setting [3]); no less than 20 µM with HLA-B*08:02; 0.604 µM with HLA-A*11:01 (setting [3]); no less than 20 µM with HLA-B*48:01; no less than 20 µM with HLA-B*07:02 (setting [3]). For the same sequence, the dissociation constant Kd is no less than 20 µM in the test with HLA-B*58:01 (setting [3]); no less than 20 µM with HLA-B*15:17; no less than 20 µM with HLA-B*15:01 (setting [3]); 0.0444 µM with HLA-A*03:01; no less than 20 µM with HLA-B*40:01; no less than 20 µM with HLA-B*46:01. Further, the Kd is no less than 20 µM with HLA-A*01:01 [1]; no less than 20 µM with HLA-B*27:05; 2.16 µM in the test with HLA-A*31:01 (setting [3]); no less than 20 µM with HLA-A*02:01 (setting [3]); no less than 20 µM with HLA-A*26:03 (source organism: Orthomarburgvirus marburgense); no less than 20 µM in the test with HLA-A*69:01 (setting [3]). The Kd with HLA-B*18:01 (setting [3]) was no less than 20 µM.

For the sequence EFKQILTDF, the equilibrium dissociation constant (Kd) with HLA-A*68:02 (setting [4]) was no less than 20 µM; with HLA-B*57:01 (setting [4]), no less than 20 µM; in the test with HLA-B*08:01, 6 µM; in the test with HLA-A*11:01 (setting [4]) it was no less than 20 µM; in the test with HLA-B*07:02 (setting [4]), no less than 20 µM; with HLA-B*58:01 (setting [4]), no less than 20 µM. The equilibrium dissociation constant (Kd) in the test with HLA-B*39:01, in the test with HLA-B*15:01 (setting [4]), with HLA-A*31:01 (setting [4]), with HLA-A*02:01 (setting [4]), with HLA-A*26:03 (setting [5]) and with HLA-B*15:09 was no less than 20 µM in each case. Besides, the dissociation constant Kd in the test with HLA-A*69:01 (setting [4]) was no less than 20 µM; with HLA-B*18:01 (setting [5]), 1.03 µM; in the test with HLA-A*26:01 it was no less than 20 µM; in the test with HLA-A*26:02, 0.457 µM; with HLA-A*01:01 [2], no less than 20 µM.
